1 protein from paper PMC11348317 (Proceedings of the National Academy of Sciences of the …, 2024) can be followed below.

The data set deals with the molecule itself. The data set can be described thus: FRET or BRET. For orientation: In BRET a luciferase serves as donor, and the signal depends on an acceptor being close.

B1: Escherichia coli transthyretin-related protein (EcTRP), single Cys variant Asn94Cys with N-terminal His5-tag, fluorophore-labelled (enzyme, UniProt P76341 24-137, looked up)
chain: AQQNILSVHILNQQTGKPAADVTVTLEKKADNGWLQLNTAKTDKDGRIKALWPEQTATTGDYRVVFKTGDYFKKQNLESFFPEIPVEFHINKVCEHYHVPLLLSQYGYSTYRGS
modifications: Cys94 labelled with DyLight 550 maleimide (FRET donor) or Alexa 647 maleimide (FRET acceptor)
In the case of B1, the “half-life of subunit exchange” value is > 30 h.
